Consider six molecules from article PMC8880518, “Regulation of the Leucine Metabolism in Mortierella alpina” (Journal of Fungi, 2022).

Read-outs that look alike come from different tables or passages of the source.

The target of data set [1] is T1, α-isopropylmalate synthase LeuA1 (Mortierella alpina, UniProt A0A9P6IVH7).
T1 construct: gene BGZ70_001638; N-terminally His6-tagged LeuA1
Put plainly: continuous DTNB assay of CoA release with purified recombinant enzyme. In kind it is biochemical.

Data set [2] deals with LeuA1, α-isopropylmalate synthase of Mortierella alpina (Mortierella alpina). The data set is described as follows: SEC; size exclusion chromatography of the purified His6-tagged proteins in solution; conditions are in the Supplementary Materials. For orientation: Size exclusion chromatography separates by hydrodynamic size, large species first.
The target in data set [3] is T2, BCAA aminotransferase BatA (Mortierella alpina, UniProt A0A9P6M176).
T2 construct: gene BCAT1; 374 aa), N-terminally His6-tagged
Put plainly: activity of purified enzyme with and without PLP (HILIC-UHPLC-MS). The class given is biochemical.

Substrate in data set [4]: CC(=O)SCCNC(=O)CCNC(=O)[C@H](O)C(C)(C)COP(=O)(O)OP(=O)(O)OC[C@H]1O[C@@H](n2cnc3c(N)ncnc32)[C@H](O)[C@@H]1OP(=O)(O)O
The data set is described as follows: purified protein. The settings on record: divalent cation (Mg2+, exchangeable with Ca2+ or Mn2+).

Substrate in data set [5]: CC(C)C(=O)C(=O)O
The data set is described as follows: Michaelis-Menten kinetics (KM), DTNB assay with purified recombinant enzyme. In kind it is biochemical, Mortierella alpina. The settings on record: divalent cation (Mg2+, exchangeable with Ca2+ or Mn2+) substrate binding pocket.

Substrate in data set [6]: CCC(=O)C(=O)O
The data set is described as above. The class given is biochemical, Mortierella alpina. The settings on record: divalent cation (Mg2+, exchangeable with Ca2+ or Mn2+).

T2 sequence (A0A9P6M176 entry or part of it): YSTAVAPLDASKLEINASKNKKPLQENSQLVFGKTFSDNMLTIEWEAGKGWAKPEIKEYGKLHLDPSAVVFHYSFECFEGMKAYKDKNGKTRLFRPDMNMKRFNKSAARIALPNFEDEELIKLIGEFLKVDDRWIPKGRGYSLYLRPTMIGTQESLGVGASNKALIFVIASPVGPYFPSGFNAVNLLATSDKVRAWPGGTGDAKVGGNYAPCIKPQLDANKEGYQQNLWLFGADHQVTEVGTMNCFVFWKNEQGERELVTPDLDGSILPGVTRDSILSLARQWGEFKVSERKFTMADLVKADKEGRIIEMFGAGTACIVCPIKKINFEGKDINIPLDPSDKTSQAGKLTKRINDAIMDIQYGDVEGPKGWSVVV

One may read the Ki as the equilibrium dissociation constant of an inhibitor or competing ligand from its target. On to `CC(C)C[C@H](N)C(=O)O` [Leu, L-leucine], for which the Ki in data set [1] (read-out: KI) amounted to 53 ± 2.5 µM.

As usually defined, the stoichiometry N is the number of molecules, sites or subunits per partner or assembly. The molecule “LeuA1, α-isopropylmalate synthase of Mortierella alpina (enzyme)” yielded a stoichiometry N in data set [2] of 6.

As for `CCC(=O)SCCNC(=O)CCNC(=O)[C@H](O)C(C)(C)COP(=O)(O)OP(=O)(O)OC[C@H]1O[C@@H](n2cnc3c(N)ncnc32)[C@H](O)[C@@H]1OP(=O)(O)O` [Prop-CoA, propionyl-CoA], the Ki in data set [1] came out at 320 ± 121 µM.

For `CC(C)CC(=O)C(=O)O` [KIC, α-ketoisocaproate], the Ki in data set [1] (read-out: KI) turned out to be 293 ± 30.4 µM.

In the case of `Cc1ncc(COP(=O)(O)O)c(C=O)c1O` [PLP, pyridoxal phosphate], in data set [3], the “activity of purified enzyme with and without PLP (HILIC-UHPLC-MS)” value was “The enzyme converted all BCAAs (L-Ile, L-Leu, L-Val) and their respective α-keto acids in a PLP-dependent manner”.

B1: α-isopropylmalate synthase LeuA1 (Mortierella alpina) (protein)
chain: MAQANKDKLIIFDTTLRDGEQSPGVTLTVNEKIEIAKQLSRLGVDVLEAGFPVASQGDFDAVERIAIEVGPLMVGREALGKPITIAGLARAVPADIQRCYDAIAKAPHKRIHTFLATSDIHLEHKLKISRDECVKRAVAAVSFAKTLVQDVEFSPEDAGRSDQDFLCKVLSAVIEAGATTLNIPDTVGYNMPEEYGSMIKYLIANTKGSDTVIWSAHCHNDLGLATANTLSGIMNGIRQVEVTINGIGERAGNTAMEEVVMAIHTHPNFFPVYHTINTPLFFRISQLVSSLSGMAVQSNKAIVGANAFLHESGIHQDGVLKNKTTYEIISPETVGANTVNLVLGKHSGRAAFKSRLQELGFGELSDEEFQVAFNSFKTLADSKKRVTEQDLLALLSDQVSAASGDKATFVIKSLQVVSGTSFATATVQLQNSQTGDVVVDAAIGKSGPVEAVFLAIQRLVGKRIRLLKFDITAVGEGVDALGQVSVKIAEDTSSPGSSDNDETAEEAKDSESKANEISQATYHGHGADSDIIQAATKAYLNAINRLVANENERLLGERKVDV
notes: N-terminally His6-tagged LeuA1
Broadly, the Km is the concentration of substrate that gives half-maximal velocity. One may read the kcat as the number of substrate molecules converted per active site and unit of time at saturation. What is called kcat/Km is the turnover number divided by the Michaelis constant. In the case of B1, in data set [4], the Km was 28.6 ± 4.1 µM, the catalytic constant (kcat) was found to be 25 s⁻¹ and the kcat/Km turned out to be 873000 M⁻¹ s⁻¹. For the same molecule, in data set [5], the Km is 56.9 ± 6.3 µM, the turnover number (kcat) amounted to 26.6 ± 1.2 s⁻¹ and the kcat/Km was 467000 M⁻¹ s⁻¹. Besides, in data set [6], the Michaelis constant (Km) was 280.8 ± 45.0 µM, the kcat is 47.4 ± 5.41 s⁻¹ and the kcat/Km was determined as 169000 M⁻¹ s⁻¹.
